This note sets out measurements from the DeepSol protein solubility set.

This data set in a line: soluble on expression in E. coli; label from the status in PepcDB or PDB records.
Regarding “MDDVLDRIMGSAPSQSGSSLNRTPKRDHRSNPDMHEPSSKRSAPMFTTPKSATPIGRDSFATLDTLNVQMNMFTMDIKDMPHKLQRLQVDVIICSSNGKQINVNLGVLAAKGDVNSHNRRLAQFFIMRAVHDKLPEKFSGKSHHFLAYDCAATLYVPEGVYTGDAEEQVTLKIDDFPKDEWKIVSKLSRRKDDSYLVTLKPAGFVHTQGEHARAEANRMELTRCVEIITSQMLNNEDYYQFANCPNREAVAVDEVVTAEASPEIHVEVTVAAVLIQEIIVEVTATEVERYRDESRGCRDMNDSRRDSSNGVDYSPSDAAEVEKALGERGSTKRFIEDALKGLDVECTRLKGNLIRVCSIAENNAENTSFMMKGDKGEQEITVVQYFQLQYNIKLKHSRLPLVVSKRFKHESFFPMELLQIAPGQRIKVNKMSPTVQSSMTGMNASMPEQHVKLVQNILIDNLKLKQSKYMDAFGIRLMSTKPLQLPAKLLPPAQIKFKNQTYMPEMSRPAFRTQDKFVQPAHIGRIGVVVFDNCIQMRQAESFCDNLAAICRDNGIKIDQDSRDWTICEINSSDAAGIQNRMRKWADDKVDILFAITREKKPDVHDILKYYEESIGLQTIQVCQQTVDKMMGGGGGRQTIDNVMRKFNLKCGGTNFFDEIPSSVRGRAVCSNSETLSKKLFEHVQFIGFEISHGAARTLFDRSRSQLDGEPSVVGVSYSLTNSTQLGGFTYLQTQKEYKLQKLGEVFPKCVQSYKEHSRRLPTRIVIYRVGAGEGDFKRVKEEIEEIRGTFDKIQPGYRPHLVVVIAQIASHARVFPSNITGRKAMEQNVPSGTCVDNVPTSYGYDEFILSSRTPLIGTVRPCKYTILINDANWSKNEIMHLTYFRAFGHQVSYKPPSVPDVLYAAENLAKRGRNNYKIHQRHVNLQAVENSIIGDHSELINEDMREELAAAIVDHMSVAMNGMTISKRNFWA”, the “soluble on expression in E. coli” value is listed as “not soluble”.
To “MDDVYRAFDSVGNILNFRIVEKEQKGFWVSTKIKTVVFDSADMSSDDLFLKCLQSSYKAYFETEPAGLDKRQLMKTLIQKCGFSC” belongs “not soluble”; to “MDEDTEDWETQLQANRDEKDRFFSEHRQSPIPPEERDDFDGLSYFDPDPDYRVEATVTVHETPESVDLETSDDRTVRYLHVATLSFDLDGESRDLHAFRQAADESRTLFVPFRDKTTGQQSYDGGRYMELEPDRDLSDGDEITLDFNLAYSPFCAYSDTFSCPLPPESNWLETAVTAGERTDLEHHHHHH”, “soluble”; to “MDEEGASVVITIKNEAKNIQKLLDSLFNNDYEHFEVVVVDDMSNDGTEGIVKKYDKVKYIRTRCSRGEGRNIGAMNSSFENILFTDGDAIVSNGWIGGMVSVLNNGFEIAIGKTVYTGKKRYIQDRVKIYFNGIEITAPSVNLAYKKRAFFSLGGFDKRFVTAEDIDLNLRAAMSGFKFGFCNECVVYAKVRDSFISFLKQAFWNGYGRAQLEEKHPGMLKKTDIRLGHNFYDFMHMSAGAAGYLLYKLR”, “soluble”.
The entry for “MDEIDLRILKILQYNAKYSLDEIAREIRIPKSTLSYRIKKLEKDGVIKGYYAYINPASLNLDYIVITSVKAKYGKNYHVELGNKLAQIPGVWGVYFVLGDNDFIVMARYKTREEFMEKFLERVMSIPEVERASTQVVVKIIKESPNIVIF” is “soluble”; for “MDFITDMSKNQRLELQNRLAQYETSLMVMSHNGDVPVITGFNVMRVTTMLDALKVELPAVAVLGDDAQDLAYVFGARPLAVGVNIIRVVDVPGQQPSALVDAELGALHEVSMVRVLNDIADEQLVKANM” it is “soluble”; for “MDFPRIIMARNPIYFESIQIGEKIEGLPRTVTETDIWTFAYLTADFFPLHTDVEFAKKTIFGKPIAQGMLVLSIALGMVDQVILSNYDVSSVIAFFGIKDVRFLRPVFIGDTIAASAEVVEKQDFDEKSGVVTYKLEVKNQRGELVLTALYSALIRKTPSK” it is “soluble”.
To “MDFQNFVATLESFKDLKSGISGSRIKKLTTYALDHIDIESKIISLIIDYSRLCPDSHKLGSLYIIDSIGRAYLDETRSNSNSSSNKPGTCAHAINTLGEVIQELLSDAIAKSNQDHKEKIRMLLDIWDRSGLFQKSYLNAIRSKCFAAALEHHHHHH” belongs “soluble”.
For the sequence “MDFTQQLQACVTQANQALSRFIAPLPFQNTPVVEAMQYGALLGGKRLRPFLVYATGQMFGVSTATLDAPAAAVECIHAYSLIHDDLPAMDDDDLRRGLPTCHIKFGEANAILAGDALQTLAFAIISDAPMPEVADRDRIAMIAELANASGIAGMCGGQALDLAAEGQRITLDALERIHRHKTGALIRAAVRLGALSAGDKGRNTLPILDRYAESIGLAFQVQDDILDVVGDTATLGKRQGADQQLGKSTYPALLGLEQARNKARDLIEDARQSLHQLAAQSLDTSALEALANYIIQRDK”, the “soluble on expression in E. coli” value is listed as “not soluble”.
The entry for “MDGNAPEPRYWEKMRLVAEVLKAVEGPIYIATHVDPDGDAIGSSLGLYRALKALGKEAYWVADPPRFLRFLPKEEEYSDPVEKLPPGATLVALDSAEPSRVVGVPVEGFVINIDHHGTNPRFGHLHVVDPSKAATAQMVKDLIDLLGVEWTAEIATPVLTGILTDTGNFRFANTTPEVLRVAAELLGYGVKLAELTDRLQFRPPSYFRLMGQVLSTVAFHFGGLLVTAHLPEDAGAEEDSDDFVGLIRYVEGSVVSVFLRKREEGVKVSIRSRGGVSAQNIALKLGGGGHVPAAGATLKGLDLDQAYERVLEAVREELTRAGYL” is “soluble”.
To “MDGRPLNRTTRAVAMIAVTIPAHNEQALIGPCLQSIRVAAQHPALQGEAVEIHVALDRCTDQTGVIARAHGAITQEVCGGVGVARAAAASAAIARGAHWLACTDADTRVPPDWLMAQLACAADAFCGVVEVTDWRDHLSQTRAAFLASEIRHDGHPHVHGANLGMRTSAYLAAGGFSNASSSEDVALVAALEQAGMRIARLASPVVNTSARRSARASGGFADYLLRLEAALLAASPSLGLEHHHHHH” belongs “not soluble”; to “MDHDKLEANLLDHALTKYLKSTKQLDEATVPKHVNNVRGFILRIIYRHGSCTIKDILKEVTLSPSATTTALNHLEQEGFIERSRNNNDRRTVWITLSESGRGAAEQMIENRQQLIDGMFERLTAEEKKTFLAIIAKLAQ”, “not soluble”; to “MDHHHHHHHHASENLYFQGHMNLDLAYRSFVLGVAGHPQVERLIKHRAKGLVRRYVAGETLEEALKAAEALEREGVHAILDLLGEMVRTEEEARAFQRGLLELVWALAGKPWPKYISLKLTQLGLDLSEDLALALLREVLREAEPRGVFVRLDMEDSPRVEATLRLYRALREEGFSQVGIVLQSYLYRTEKDLLDLLPYRPNLRLVKGAYREPKEVAFPDKRLIDAEYLHLGKLALKEGLYVAFATHDPRIIAELKRYTEAMGIPRSRFEFQFLYGVRPEEQRRLAREGYTVRAYVPYGRDWYPYLTRRIAERPENLLLVLRSLVSG”, “soluble”.
On to “MDHLDDLVDLYEYRVEDLLQGRTPKGGKQALLRLRQLLIQSRLPGPLAKRFRQADARFRAQRRALAPEAQAPVELPAIAVPEEPEPPPPEASPLAALALKVWRLQVERDVKARLEALLAGRREELRLIHAFLDNFALYRETPGFKRDFNLSRFVPTRPIPSLSDTLVDLDDPKVAQALVVDFLETARELPKLLPLPPEETRTYVRRFLNRLLEWEGAYNLPPKPDLPALRRALEEARRLGAGEKEVAQLEERLRKAAQEARRRDLLLEEEKGRFRVALEKVVALLSLLPTPQGETPWPRVPEPGQEEEGLLTLRLAPGPVALGPLTLTLSHAGGTWYLGLEGEDHPLEDTLVLPWEDLEVWAVRENDLLHLRLEARSGLRLYELLAEGRLLAYLLHPGKDYAYLRLLRGLSTRLKGEFQAQAFGPALAEKYRKAPEEALQDFARKGLELTLKRLGQADPLPLLQEVGQALGLEAEAQTLGQALREYLGRRPPTRETLGGEVHFLALTPEPQALKLDQHVLSVRLKEDAVYLGQAGEVPRRLKDLLVYRLGERALVLAREGRRLAYTLLPLP”, for which the “soluble on expression in E. coli” value is listed as “soluble”.
To “MDIEERINLVLKKPTEEVLTVENLRHLFEIGAPLQHYIGFEISGYIHLGTGLMAGAKIADFQKAGIKTRVFLADWHSWINDKLGGDLEVIQEVALKYFKVGMEKSIEVMGGDPKKVEFVLASEILEKGDYWQTVIDISKNVTLSRVMRSITIMGRQMGEAIDFAKLIYPMMQVADIFYQGVTIAHAGMDQRKAHVIAIEVAQKLRYHPIVHEGEKLKPVAVHHHLLLGLQEPPKWPIESEEEFKEIKAQMKMSKSKPYSAVFIHDSPEEIRQKLRKAFCPAREVRYNPVLDWVEYIIFREEPTEFTVHRPAKFGGDVTYTTFEELKRDFAEGKLHPLDLKNAVAEYLINLLEPIRRYFEKHPEPLELMRSVKITR” belongs “soluble”.
